Results on one molecule are retold here after patent US20130142788A1 (published 2013).

* marks the point of attachment. Biotin = O=C1N[C@H]2[C@H](CS[C@H]2CCCCC(=O)*)N1

In assay [1] the target is T1, myostatin artificial peptide No 17 (SGSGIAPKRYKANYCSGE) (HELM PEPTIDE1{[O=C1N[C@H]2[C@H](CS[C@H]2CCCCC(=O)[*:2])N1].S.G.S.G.I.A.P.K.R.Y.K.A.N.Y.C.S.G.E.[am]}$$$$V2.0; SMILES …).
T1 construct: also called Peptide 17
T1 peptide: SGSGIAPKRYKANYCSGE
Nature of the assay: SRU BIND biosensor, peptides captured on streptavidin plate. On the procedure: (§1) Work was carried out on an SRU BIND reader (SRU Biosystems). A streptavidin biosensor plate was washed, a baseline reading taken, and biotinylated peptides captured onto the streptavidin coated biosensor plate. The plate was washed again, and a new baseline reading taken, antibody was then added and binding monitored.

Assay [2] has as its target T2, myostatin artificial peptide No 13 (SGSGEAFGWDWIIAPKRY) (HELM PEPTIDE1{[O=C1N[C@H]2[C@H](CS[C@H]2CCCCC(=O)[*:2])N1].S.G.S.G.E.A.F.G.W.D.W.I.I.A.P.K.R.Y.[am]}$$$$V2.0; SMILES …).
T2 construct: also called Peptide 13
T2 peptide: SGSGEAFGWDWIIAPKRY
The assay is described as above. On the procedure: as §1

Assay [3] addresses T3, myostatin artificial peptide No 49 (SGSGGKIPAMVVDRCGCS) (cysteine pairing not given here).
T3 construct: also called Peptide 49
T3 peptide: Biotin-SGSGGKIPAMVVDRCGCS-OH
The description is as above. On the procedure:
as §1

The target in assay [4] is T4, myostatin artificial peptide No 33 (SGSGNPRGSAGPCCTPTK) (cysteine pairing not given here).
T4 construct: also called Peptide 33
T4 peptide: Biotin-SGSGNPRGSAGPCCTPTK-NH2
The assay is described as above. The method, then:
as §1

Assay [5] concerns the target T5, myostatin artificial peptide No 1 (…) (N-terminus H-; C-terminus -NH2).
T5 construct: also called Peptide 1
The assay is described as above. On the procedure:
as §1

Assay [6] deals with T6, myostatin artificial peptide No 41 (SGSGPINMLYFNGKEQII) (HELM PEPTIDE1{[O=C1N[C@H]2[C@H](CS[C@H]2CCCCC(=O)[*:2])N1].S.G.S.G.P.I.N.M.L.Y.F.N.G.K.E.Q.I.I.[am]}$$$$V2.0; SMILES …).
T6 construct: also called Peptide 41
T6 peptide: SGSGPINMLYFNGKEQII
The description is as above. On the procedure: as §1

The target in assay [7] is T7, myostatin artificial peptide No 5 (SGSGHSTESRCCRYPLTV) (cysteine pairing not given here).
T7 construct: also called Peptide 5
T7 peptide: Biotin-SGSGHSTESRCCRYPLTV-NH2
The description is as above. The method, then:
as §1

For assay [8], the target named is T8, myostatin artificial peptide No 23 (SGSGGECEFVFLQKYPHT) (HELM PEPTIDE1{[O=C1N[C@H]2[C@H](CS[C@H]2CCCCC(=O)[*:2])N1].S.G.S.G.G.E.C.E.F.V.F.L.Q.K.Y.P.H.T.[am]}$$$$V2.0; SMILES …).
T8 construct: also called Peptide 23
T8 peptide: SGSGGECEFVFLQKYPHT
Described as above. On the procedure: as §1

The target in assay [9] is T9, recombinant mature dimeric myostatin (human and mouse (mature sequences 100% …, UniProt O08689 268-376)).
T9 sequence: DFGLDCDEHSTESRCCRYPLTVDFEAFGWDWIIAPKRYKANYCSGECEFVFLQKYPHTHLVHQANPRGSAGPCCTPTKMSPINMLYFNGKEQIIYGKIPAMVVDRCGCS
Nature of the assay: cell-based or functional assay.

Assay [10] concerns the target T9, recombinant mature dimeric myostatin. Nature of the assay: cell-based or functional assay. This is another data set of the same source.
Assay [11] has the same target. Description: ActRIIb neutralisation ELISA: inhibition of 2 nM biotinylated myostatin binding to coated ActRIIb. An outline of the steps:
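Soluble ActRIIb coated at 1 μg/ml; 2 nM biotinylated myostatin pre-incubated 30 min at 37° C with antibody dilution series, then bound to plate 1 h at 37° C. Bound myostatin detected with streptavidin-HRP, absorbance at 490 nm after acid stop.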
Background: An ELISA detects its analyte on a solid surface through an enzyme-linked reagent.

B1: mouse monoclonal antibody 10B3 (antibody, mouse IgG2a, V domains shown)
VH: EVQLQQSGPELVKPGASVKISCKASGYSFTGYFMHWVKQSHGNILDWIGNIYPYNGVSNYNQRFKAKATLTVDKSSSTAYMELRSLTSEDSAVYYCARRYYYGTGPADWYFDVWGTGTTVTVSS
VL: DIKMTQSPSSMYASLRERVTITCKASQDINSYLSWFQQKPGKSPKTLIYRANRLVDGVPSRFSGSGSGQDYSLTISSLEYEDMGIYYCLQCDEFPLTFGAGTKLELK
notes: Murine IgG2a/k; also called 10B3 mouse parental; parental 10B3
On to B1, for which the binding result in assay [1], in assay [2], in assay [3], in [4], in assay [5] and in assay [6] was “no binding” in each case. For the same molecule, the binding result in assay [7] and in assay [8] was “no binding” in each case. Further, the “IC50, myostatin responsive reporter gene assay (A204 cells, luciferase)” value in [9] is 10 nM. Also, the “IC50, myostatin responsive reporter gene neutralisation assay (A204)” value in assay [10] was 10 nM. Moreover, the IC50 – broadly, the midpoint of a concentration-inhibition curve – in [11] worked out at 0.172 nM.
